Data as given in patent US5374506A, “Amino acid sequence for a functional human interleukin-8 receptor” (The United States of America as represented by the …, priority 1991, dated 1994).

Experiments:
human IL-8 receptor [1] = biological target: T1, human IL-8 receptor (Homo sapiens, UniProt P25025); test: calcium efflux assay in Xenopus oocytes injected with p2 cRNA; type: cell-based; details: for rank order of potency for activating calcium flux: IL-8 receptor expressed by Xenopus oocytes, FIG. 2(C); for calcium mobilization / activation of the IL-8 receptor (result in words): FIG. 2C
T1 construct: expressed in transfected cells; host or cells: Xenopus oocytes injected with p2 cRNA
T1 sequence (P25025 6-360): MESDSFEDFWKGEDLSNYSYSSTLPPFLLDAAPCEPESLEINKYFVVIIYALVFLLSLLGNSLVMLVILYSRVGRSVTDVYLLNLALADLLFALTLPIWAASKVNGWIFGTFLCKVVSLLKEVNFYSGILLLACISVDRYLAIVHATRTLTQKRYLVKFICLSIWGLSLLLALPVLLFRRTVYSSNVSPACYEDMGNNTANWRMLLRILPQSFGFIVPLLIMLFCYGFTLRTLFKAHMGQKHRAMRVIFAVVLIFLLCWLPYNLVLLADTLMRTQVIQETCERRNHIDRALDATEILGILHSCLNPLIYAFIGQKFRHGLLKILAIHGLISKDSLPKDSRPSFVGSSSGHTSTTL
Procedure: (§1) The materials and methods used for the calcium efflux assay were as described in P. M. Murphy, E. K. Gallin, H. L. Tiffany, J. Immunol. […] Oocytes were microinjected with RNA samples in a total volume of 50 nl per oocyte 3 days after harvesting and were then incubated at 20° to 23° C. for 2 to 4 days. Oocytes were then incubated with ^45 Ca^2+ [50 μCi/ml (ICN Biomedicals, Costa Mesa, Calif.)] for 3 hours. After ten washes with medium, individual oocytes were stimulated with ligand in wells of a 96-well tissue culture plate containing 100 μl of medium. Three 100 μl samples of the incubation medium were collected and analyzed by liquid scintillation counting: a) the final 100 μl wash (20 min) before application of ligand; b) fluid containing the stimulus, removed after a 20 min incubation with the oocyte; and c) the oocyte solubilized in SDS (1%) in medium 20 min after stimulation. Data are presented as the mean±standard error of the mean (SEM) of the percent of loaded ^45 Ca^2+ that was released by individual oocytes in response to the stimulus, or [(b-a).div.(b+c)]×100. FMLP and recombinant human C5a was from Sigma, St. Louis, Mo. Recombinant human IL-8 was from Genzyme, Boston, Mass. Recombinant human NAP-2 was from Bachem, Philadelphia, Pa.

receptor encoded by p2 = test: binding of 125I-labeled IL-8 and gro to COS cells transiently transfected with pCDNAI-p2; parameters: species or system human; details: receptor encoded by p2 expressed in COS cells
Procedure: To further support the data obtained from the oocyte studies, the p2 cDNA was also cloned into the vector pCDNAI. When COS cells are transiently transfected with the pCDNAI-p2 construct, specific binding sites were detected with ^125 I-labeled IL-8 and gro protein. In contrast to the ligand binding affinity in the oocyte environment, the affinity for the ligand when the receptor encoded by p2 was expressed in the COS cell was higher. Specifically, the kd for IL-8 was 2 nM and the kd for gro was 1.3 nM.

[2] = biological target: human interleukin-8 receptor encoded by cDNA clone p2 (human)
[3] = tested on: oocytes injected with 50 ng of HL60 neutrophil RNA; test: calcium efflux assay in oocytes injected with HL60 neutrophil RNA; type: cell-based, Xenopus; details: oocytes injected with 50 ng HL60 neutrophil RNA
Procedure: as §1

recombinant human C5a = recombinant human C5a (human, UniProt P01031); test: displacement of [125I]-IL-8 from Xenopus oocytes injected with p2 cRNA
[4] = biological target: gro (melanoma growth-stimulatory activity) (Homo sapiens (Human), UniProt P09341, 125I label in the COS cell binding experiment); test: binding of 125I-labeled gro to COS cells transiently transfected with pCDNAI-p2
recombinant human IL-8 = recombinant human IL-8 (human, UniProt P10145, 125I label in the binding experiments); test: binding of 125I-labeled IL-8 to COS cells transiently transfected with pCDNAI-p2
human IL-8 receptor [5] = biological target: T1, human IL-8 receptor; test: binding of [125I]-IL-8 to oocytes injected with p2 cRNA; details: 1 μM competitor
Procedure: Total ( ) and non-specific binding (.largecircle.) was determined by incubating oocytes injected with p2 cRNA with the indicated concentration of radioligand in the absence or presence of unlabeled IL-8 (1 μM), respectively. The data shown are the mean±SEM of triplicate determinations per point and are representative of two separate experiments. Nonspecific binding was subtracted from total binding to determine specific binding (.quadrature.). […] Specific binding of [^125 I]-IL-8 by oocytes injected with water was undetectable.
IL-8 was iodinated to a specific activity of 260 Ci/mmole as described in H. L. Malech, J. P. Gardner, D. F. Heiman, S. A. Rosenzweig, J. Biol. Chem. 260, 2509 (1985). The radioligand was qualified by binding to human neutrophils. Single oocytes were incubated with [^125 I]-IL-8 for 30 min on ice in 10 μl binding buffer (Hanks balanced salt solution with 25 mM HEPES, 1% bovine serum albumin, pH 7.4). Unbound ligand was removed by pelleting the oocyte through 300 μl F50 silicone fluid (General Electric, Waterford, N.Y.). The tube was quick-frozen and gamma emissions from the amputated tips were counted.

[6] = Xenopus oocytes injected with p2 cRNA

Question: Which “rank order of potency for activating calcium flux” value (human IL-8 receptor [1]) does the source give for “IL-8: inflammatory cytokine, potent chemoattractant for neutrophils; recombinant human IL-8 from Genzyme” here?
Answer: Its value is “IL-8>gro>NAP-2”.

Question: And the EC50 (human IL-8 receptor [1]; Xenopus oocytes injected with p2 cRNA, FIG. 2A, read-out: EC50 of intracellular calcium mobilization)?
Answer: The EC50 was 20 nM.

Question: And the “EC50 in oocytes relative to value reported for human neutrophils” value (human IL-8 receptor [1]; oocyte EC50 higher than that reported for human neutrophils with recombinant human IL-8)?
Answer: The value was “approximately 20 fold”.

Question: What about the Kd (receptor encoded by p2) of the same molecule?
Answer: Its Kd is 2 nM.

Question: With “recombinant human IL-8 (from UniProt P10145) (ligand)” as the molecule, how does the calcium efflux (mobilization of intracellular calcium), EC50 [2] read?
Answer: The calcium efflux (mobilization of intracellular calcium), EC50 was 20 nM.

Question: With `CSCC[C@H](NC=O)C(=O)N[C@@H](CC(C)C)C(=O)N[C@@H](Cc1ccccc1)C(=O)O` [FMLP, N-formyl methionyl-leucylphenylalanine, reference compound] as the molecule, how does the “calcium mobilization / activation of the IL-8 receptor (result in words)” value (human IL-8 receptor [1]; [6]) read?
Answer: The value was “did not respond”.

Question: And the “calcium efflux response (percent of loaded 45Ca2+ released)” value ([3]; 1 μM ligand)?
Answer: Its value is 51±3%.

Question: Which “rank order of potency for activating calcium flux” value (human IL-8 receptor [1]) does the source give for “gro: member of the macrophage inflammatory protein-2 (MIP-2) family of cytokines, structurally related to IL-8” here?
Answer: The value was “IL-8>gro>NAP-2”.

Question: And the Kd (receptor encoded by p2)?
Answer: The Kd was 1.3 nM.

B1: human interleukin-8 receptor encoded by cDNA clone p2 (receptor)
chain: MESDSFEDFWKGEDLSNYSYSSTLPPFLLDAAPCEPESLEINKYFVVIIYALVFLLSLLGNSLVMLVILYSRVGRSVTDVYLLNLALADLLFALTLPIWAASKVNGWIFGTFLCKVVSLLKEVNFYSGILLLACISVDRYLAIVHATRTLTQKRYLVKFICLSIWGLSLLLALPVLLFRRTVYSSNVSPACYEDMGNNTANWRMLLRILPQSFGFIVPLLIMLFCYGFTLRTLFKAHMGQKHRAMRVIFAVVLIFLLCWLPYNLVLLADTLMRTQVIQETCERRNHIDRALDATEILGILHSCLNPLIYAFIGQKFRHGLLKILAIHGLISKDSLPKDSRPSFVGSSSGHTSTTL
Question: What does the source list for B1?
Answer: binding result (recombinant human C5a): no binding (tested: 1 µM); Kd [4]: 1.3 nM; Kd (recombinant human IL-8): 2 nM

B2: C5a: structurally unrelated chemoattractant, 74 amino acids; recombinant human C5a from Sigma (protein)
chain: TLQKKIEEIAAKYKHSVVKKCCYDGACVNNDETCEQRAARISLGPRCIKAFTECCVVASQLRANISHKDMQLGR
Question: Which “calcium mobilization / activation of the IL-8 receptor (result in words)” value (human IL-8 receptor [1]; [6]) does the source give for B2 here?
Answer: The value was “did not activate”.

Question: And the “displacement of [125I]-IL-8” value (human IL-8 receptor [5])?
Answer: Its value is “did not displace”.

Question: And the “calcium efflux response (percent of loaded 45Ca2+ released)” value ([3]; 500 nM ligand)?
Answer: Its value is 16±5%.

B3: NAP-2: member of the MIP-2 family of cytokines; recombinant human NAP-2 from Bachem (protein)
chain: AELRCMCIKTTSGIHPKNIQSLEVIGKGTHCNQVEVIATLKDGRKICLDPDAPRIKKIVQKKLAGDESAD
Question: With B3 as the molecule, how does the “rank order of potency for activating calcium flux” value (human IL-8 receptor [1]) read?
Answer: The value was “IL-8>gro>NAP-2”.
